Experimental data taken from US7285380B2, “Methods of producing polyketide synthase mutants and compositions and uses thereof” (The Salk Institute for Biological Studies, priority 2000, dated 2007).
Entries after “also recorded” stand apart in the source; their conditions may differ.

Legend:
[1] = TLC-based radiometric assay of product formation by 2-PS, CHS and CHS mutants (LC/MS confirmation); format: biochemical; settings: for product formed: 100 mM Hepes pH 7.0, 30 μM starter-CoA, 60 μM [14C]-malonyl-CoA, 25° C
Description: Comparison of the initiation/elongation cavities of 2-PS (SEQ ID NO:68) and CHS (SEQ ID NO:1) reveal four amino acid differences. In 2-PS, Leu202, Met259, Leu261, and Ile343 replace Thr197, Ile254, Gly256, and Ser338, respectively, of CHS. These four substitutions reduce cavity volume from 923 Å^3 in CHS to 274 Å^3 in 2-PS. A model of methylpyrone in the 2-PS cavity, based on the position of acetoacetyl-CoA, emphasizes the volume change compared to the CHS-naringenin complex (Accession No. 1 CGK, SEQ ID NO:69). Leu202 and Ile343 occlude the portion of the 2-PS cavity corresponding to the coumaroyl-binding site of CHS. Replacement of Gly256 in CHS by Leu261 in 2-PS severely reduces the size of the active site cavity. Substitution of Met259 in 2-PS for Ile254 in CHS produces a modest alteration in cavity volume. To examine the functional importance of these amino acid differences, the initiation/elongation cavity of CHS was altered by mutagenesis to resemble that of 2-PS. The resulting mutant proteins were screened for activity using either p-coumaroyl-CoA or acetyl-CoA as starter molecules. Activities of 2-PS, CHS, and the CHS mutants were determined by monitoring product formation using a TLC-based radiometric assay. Assay conditions were 100 mM Hepes (pH 7.0), 30 μM starter-CoA (either p-coumaroyl-CoA or acetyl-CoA), and 60 μM [^14C]-malonyl-CoA (50,000 cpm) in 100 μl at 25° C. Reactions were quenched with 5% acetic acid, extracted with ethyl acetate, and applied to TLC plates and developed. Due to the spontaneous cyclization of chalcone into the flavanone naringenin, activities of CHS are referenced to nanngenin formation.
The x-ray crystal structures of 2-PS (SEQ ID NO:68) and CHS (SEQ ID NO:1) imply that the size of the active site cavity limits polyketide length and modulates folding of the polyketide chain. […] Since the T197L, G256L, and S338Imutants (see SEQ ID NO:1) altered product formation, a CHS triple mutant was generated. […] LC/MS/MS analysis was performed by the Mass Spectroscopy facility of the Scripps Research Institute. Scaled-up assays (2 ml reaction volume) with the CHS T197L/G256L/S338I mutant (see SEQ ID NO:1) and 2-PS (SEQ ID NO:68) were performed. Extracts were analyzed on a Hewlett-Packard HP1100 MSD single quadrupole mass spectrometer coupled to a Zorbax SB-C18 column (5 μm, 2.1 mm×150 mm). HPLC conditions were as follows: gradient system from 0 to 100% methanol in water (each containing 0.2% acetic acid) within 10 mm; flow rate 0.25 ml min^−1. LC/MS/MS data from both reactions were identical: 6-methyl-4-hydroxy-2-pyrone, Rt=5.068 mm; [M-H]^−125; [M-H—CO2]^−81. The numbers show m/z values with relative intensities in parenthesis. The observed fragmentation matches previously published data.

[2] = 14C malonyl-CoA assay of CHS mutants, products analysed by TLC and autoradiography (naringenin vs resveratrol); format: biochemical; settings: TLC autoradiography
Description: Wild type CHS produces chalcone, which spontaneously converts to naringenin, the position of which is indicated by the arrow on the left. Wild type STS produces resveratrol, the position of which is indicated by the arrow of the right. Function conversion of CHS to STS (i.e., the production of the alternate product from the same intermediate) results in diminished production of naringenin and increased production of resveratrol. Various mutants of CHS produce varying degrees of resveratrol, showing that CHS activity can be altered to STS-like activity to different extents by different mutations.
Mutant CHS (SEQ ID NO: 1) has altered activity based on assays conducted with ^14C malonyl-CoA. Products were extracted with ethyl acetate and analyzed by silica gel thin layer chromatography (TLC) and visualized by autoradiography.

[3] = starter p-coumaroyl-CoA or acetyl-CoA

In the case of “Wild-type CHS: wild type alfalfa chalcone synthase 2, SEQ ID NO:1 [reference compound]”, the product formed [1] is reported as “generates the tetraketide chalcone” and the “preference for p-coumaroyl-CoA versus acetyl-CoA as starter molecule” value [1, 3] is reported as 230 fold.

With “2-PS: 2-Pyrone synthase from Gerbera hybrida, SEQ ID NO:68 [Mutant 2-PS, reference compound]” the product formed [1] was “produces the triketide methylpyrone; also recorded: yields methylpyrone produced from three malonyl-CoA molecules” and the starter molecule accepted [1, 3] was “accepts acetyl-CoA but does not use p-coumaroyl-CoA”.

B1: I254M: CHS I254M mutant (protein, listed as Medicago sativa)
chain: MVSVSEIRKAQRAEGPATILAIGTANPANCVEQSTYPDFYFKITNSEHKTELKEKFQRMCDKSMIKRRYMYLTEEILKENPNVCEYMAPSLDARQDMVVVEVPRLGKEAAVKAIKEWGQPKSKITHLIVCTTSGVDMPGADYQLTKLLGLRPYVKRYMMYQQGCFAGGTVLRLAKDLAENNKGARVLVVCSEVTAVTFRGPSDTHLDSLVGQALFGDGAAALIVGSDPVPEIEKPIFEMVWTAQTIAPDSEGAMDGHLREAGLTFHLLKDVPGIVSKNITKALVEAFEPLGISDYNSIFWIAHPGGPAILDQVEQKLALKPEKMNATREVLSEYGNMSSACVLFILDEMRKKSTQNGLKTTGEGLEWGVLFGFGPGLTIETVVLRSVAI
With B1 the “function and specific activity relative to wild-type enzyme” value [1] was “functionally comparable to wild-type enzyme with a modest reduction in specific activity” and the product formed [1] was “yields chalcone”.

B2: T197L/G256L/S338I: CHS triple mutant with cavity resembling 2-PS (protein, listed as Medicago sativa)
chain: MVSVSEIRKAQRAEGPATILAIGTANPANCVEQSTYPDFYFKITNSEHKTELKEKFQRMCDKSMIKRRYMYLTEEILKENPNVCEYMAPSLDARQDMVVVEVPRLGKEAAVKAIKEWGQPKSKITHLIVCTTSGVDMPGADYQLTKLLGLRPYVKRYMMYQQGCFAGGTVLRLAKDLAENNKGARVLVVCSEVTAVLFRGPSDTHLDSLVGQALFGDGAAALIVGSDPVPEIEKPIFEMVWTAQTIAPDSEGAIDLHLREAGLTFHLLKDVPGIVSKNITKALVEAFEPLGISDYNSIFWIAHPGGPAILDQVEQKLALKPEKMNATREVLSEYGNMISACVLFILDEMRKKSTQNGLKTTGEGLEWGVLFGFGPGLTIETVVLRSVAI
In the case of B2, the product formed [1] is reported as “produces only methylpyrone” and the starter molecule accepted [1, 3] is reported as “only accepts acetyl-CoA (or malonyl-CoA) as the starter molecule”.

B3: G256L: CHS G256L mutant (protein, listed as Medicago sativa)
chain: MVSVSEIRKAQRAEGPATILAIGTANPANCVEQSTYPDFYFKITNSEHKTELKEKFQRMCDKSMIKRRYMYLTEEILKENPNVCEYMAPSLDARQDMVVVEVPRLGKEAAVKAIKEWGQPKSKITHLIVCTTSGVDMPGADYQLTKLLGLRPYVKRYMMYQQGCFAGGTVLRLAKDLAENNKGARVLVVCSEVTAVTFRGPSDTHLDSLVGQALFGDGAAALIVGSDPVPEIEKPIFEMVWTAQTIAPDSEGAIDLHLREAGLTFHLLKDVPGIVSKNITKALVEAFEPLGISDYNSIFWIAHPGGPAILDQVEQKLALKPEKMNATREVLSEYGNMSSACVLFILDEMRKKSTQNGLKTTGEGLEWGVLFGFGPGLTIETVVLRSVAI
With B3 the product formed [1] was “do not form chalcone” and the “preference for acetyl-CoA as starter molecule” value [1, 3] was 3 fold.

B4: 14B: alfalfa CHS mutant: V98L, T131S, S133T, G134T, V135P, M137L (protein, UniProt P30074 1-389, looked up, variant V98L T131S S133T G134T V135P M137L)
Chalcone synthase 2: MVSVSEIRKAQRAEGPATILAIGTANPANCVEQSTYPDFYFKITNSEHKTELKEKFQRMCDKSMIKRRYMYLTEEILKENPNVCEYMAPSLDARQDMLVVEVPRLGKEAAVKAIKEWGQPKSKITHLIVCSTTTPDLPGADYQLTKLLGLRPYVKRYMMYQQGCFAGGTVLRLAKDLAENNKGARVLVVCSEVTAVTFRGPSDTHLDSLVGQALFGDGAAALIVGSDPVPEIEKPIFEMVWTAQTIAPDSEGAIDGHLREAGLTFHLLKDVPGIVSKNITKALVEAFEPLGISDYNSIFWIAHPGGPAILDQVEQKLALKPEKMNATREVLSEYGNMSSACVLFILDEMRKKSTQNGLKTTGEGLEWGVLFGFGPGLTIETVVLRSVAI
For B4, the naringenin amount [2] was “reduced amounts of naringenin compared to wild type CHS” and the resveratrol amount [2] was “little or no resveratrol”.

B5: T197L: CHS T197L mutant (protein, listed as Medicago sativa)
chain: MVSVSEIRKAQRAEGPATILAIGTANPANCVEQSTYPDFYFKITNSEHKTELKEKFQRMCDKSMIKRRYMYLTEEILKENPNVCEYMAPSLDARQDMVVVEVPRLGKEAAVKAIKEWGQPKSKITHLIVCTTSGVDMPGADYQLTKLLGLRPYVKRYMMYQQGCFAGGTVLRLAKDLAENNKGARVLVVCSEVTAVLFRGPSDTHLDSLVGQALFGDGAAALIVGSDPVPEIEKPIFEMVWTAQTIAPDSEGAIDGHLREAGLTFHLLKDVPGIVSKNITKALVEAFEPLGISDYNSIFWIAHPGGPAILDQVEQKLALKPEKMNATREVLSEYGNMSSACVLFILDEMRKKSTQNGLKTTGEGLEWGVLFGFGPGLTIETVVLRSVAI
In the case of B5, the product formed [1] is reported as “do not form chalcone; also recorded: form a distinct product using coumaroyl-CoA as a starter molecule” and the “preference for p-coumaroyl-CoA versus acetyl-CoA as starter molecule” value [1, 3] is reported as 10 fold.

B6: S338I: CHS S338I mutant (protein, listed as Medicago sativa)
chain: MVSVSEIRKAQRAEGPATILAIGTANPANCVEQSTYPDFYFKITNSEHKTELKEKFQRMCDKSMIKRRYMYLTEEILKENPNVCEYMAPSLDARQDMVVVEVPRLGKEAAVKAIKEWGQPKSKITHLIVCTTSGVDMPGADYQLTKLLGLRPYVKRYMMYQQGCFAGGTVLRLAKDLAENNKGARVLVVCSEVTAVTFRGPSDTHLDSLVGQALFGDGAAALIVGSDPVPEIEKPIFEMVWTAQTIAPDSEGAIDGHLREAGLTFHLLKDVPGIVSKNITKALVEAFEPLGISDYNSIFWIAHPGGPAILDQVEQKLALKPEKMNATREVLSEYGNMISACVLFILDEMRKKSTQNGLKTTGEGLEWGVLFGFGPGLTIETVVLRSVAI
For B6, the product formed [1] was “do not form chalcone”, the product formed ([1]; listed as S3381) was “form a distinct product using coumaroyl-CoA as a starter molecule” and the “preference for p-coumaroyl-CoA versus acetyl-CoA as starter molecule” value [1, 3] was 3 fold.

B7: 2B: alfalfa CHS mutant: A1 (D96A, V98L, V99A, V100M), A2 (T131S, S133T, G134T, V135P, M137L) (protein, UniProt P30074 1-389, looked up, variant D96A V98L V99A V100M T131S S133T G134T V135P M137L)
Chalcone synthase 2: MVSVSEIRKAQRAEGPATILAIGTANPANCVEQSTYPDFYFKITNSEHKTELKEKFQRMCDKSMIKRRYMYLTEEILKENPNVCEYMAPSLDARQAMLAMEVPRLGKEAAVKAIKEWGQPKSKITHLIVCSTTTPDLPGADYQLTKLLGLRPYVKRYMMYQQGCFAGGTVLRLAKDLAENNKGARVLVVCSEVTAVTFRGPSDTHLDSLVGQALFGDGAAALIVGSDPVPEIEKPIFEMVWTAQTIAPDSEGAIDGHLREAGLTFHLLKDVPGIVSKNITKALVEAFEPLGISDYNSIFWIAHPGGPAILDQVEQKLALKPEKMNATREVLSEYGNMSSACVLFILDEMRKKSTQNGLKTTGEGLEWGVLFGFGPGLTIETVVLRSVAI
For B7, the naringenin amount [2] was “reduced amounts of naringenin compared to wild type CHS” and the resveratrol amount [2] was “little or no resveratrol”.
